The text below walks through data of patent US20200239575A1 (UNIVERSITY OF UTAH RESEARCH FOUNDATION, published 2020).

For one experiment, the target named is T1, mouse serum albumin (mouse, UniProt P07724 25-608).
T1 construct: also called MSA; mouse albumin
Put plainly: native PAGE of a 1-to-1 mixture (FIG. 14a).

For the next experiment, the target named is T2, human serum albumin (human, UniProt P02768 25-609).
T2 construct: also called HSA
Put plainly: native PAGE of a 1-to-1 mixture (FIG. 14b).

Experiment [1] has as its target T3, programmed death-1 receptor (PD-1), mouse, on cells (mouse, UniProt Q02242 25-288).
T3 construct: whole, on cells; also called surface PD-1; PD-1^+ cells (EL4)
T3 sequence (looked up): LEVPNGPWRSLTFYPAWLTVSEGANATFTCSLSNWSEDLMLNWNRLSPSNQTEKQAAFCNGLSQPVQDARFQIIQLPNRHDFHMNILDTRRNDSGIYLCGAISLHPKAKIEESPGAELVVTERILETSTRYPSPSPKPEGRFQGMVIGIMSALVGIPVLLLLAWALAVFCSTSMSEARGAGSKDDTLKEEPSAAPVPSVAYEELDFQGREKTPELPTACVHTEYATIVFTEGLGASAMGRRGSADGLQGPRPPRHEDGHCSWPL
Put plainly: flow cytometry dose-response on 1 million EL4 cells, 4 °C 30 min, Alexa Fluor 647-labelled; EC50 of the PD-1^+ fraction taken as Kd (FIG. 10d). A general note: Flow cytometry measures light scatter and fluorescence of single cells or particles in a stream.

The target in experiment [2] is T3, programmed death-1 receptor (PD-1), …. Put plainly: flow cytometry, Alexa Fluor 647-labelled ABD-PE, 4 °C 30 min, primary T cells, primary B cells, EL4 and B16 cells.
For experiment [3] the target is unchanged. Put plainly: flow cytometry, 4 °C 30 min, primary B cells (FIG. 8d).
Experiment [4] has the same target. Put plainly: flow cytometry, 37 °C 30 min, primary T cells (FIG. 8e).
Experiment [5] shares this target. Put plainly: flow cytometry, 37 °C 30 min, primary B cells (FIG. 8f).
Experiment [6] shares this target. Put plainly: flow cytometry, 37 °C 30 min, EL4 against B16 cells (FIG. 10e).
For experiment [7] the target is unchanged. Put plainly: flow cytometry, EL4 cells, competitor PD-L1-Fc 500 nM, 4 °C (FIG. 8g).
Experiment [8] has the same target. Put plainly: flow cytometry, EL4 cells, competitor PD-L1-Fc 500 nM, 37 °C (FIG. 8g).
Experiment [9] has the same target. Put plainly: flow cytometry, binding and uptake by EL4 against B16 cells (FIG. 4B).
For experiment [10] the target is unchanged. Put plainly: flow cytometry, 4 °C 30 min, EL4 against B16 cells (FIG. 10c).
The target is the same in experiment [11]. Put plainly: cell-based or functional assay.
The target is the same in experiment [12]. Put plainly: flow cytometry, 4 °C 30 min, primary T cells (FIG. 8c).

B1: αPD-1-PE (other)
chain: HHHHHHGGGGSEVQLQESGPGLVKPSQSLSLTCSVTGYSITSSYRWNWIRKFPGNCLEWMGYINSAGISNYNPSLKRRISITRDTSKNQFFLQVNSVTTEDAATYYCARSDNMGTTPFTYWGQGTLVTVSSGGGGSGGGGSGGGGSDIVMTQGTLPNPVPSGESVSITCRSSKSLLYSDGKTYLNWYLQRPGQSPQLLIYWMSTRASGVSDRFSGSGSGTDFTLKISGVEAEDVGIYYCQQGLEFPTFGCGTKLELKGGGGSGGGGSGGGGSRHRQPRGWEQLPTGAEFLGDGGDVSFSTRGTQNWTVERLLQAHRQLEERGYVFVGYHGTFLEAAQSIVFGGVRARSQDLDAIWRGFYIAGDPALAYGYAQDQEPDARGRIRNGALLRVYVPRSSLPGFYRTSLTLAAPEAAGEVERLIGHPLPLRLDAITGPEEEGGRLETILGWPLAERTVVIPSAIPTDPRNVGGDLDPSSIPDKEQAISALPDYASQPGKPPREDLK
notes: Control protein without the ABD
Regarding B1, the binding result in the experiment with mouse serum albumin and with human serum albumin was “no binding” in each case.

B2: αPD-1 (full IgG) (antibody, V domains shown)
VH: EVQLQESGPGLVKPSQSLSLTCSVTGYSITSSYRWNWIRKFPGNRLEWMGYINSAGISNYNPSLKRRISITRDTSKNQFFLQVNSVTTEDAATYYCARSDNMGTTPFTYWGQGTLVTVSS
VL: DIVMTQGTLPNPVPSGESVSITCRSSKSLLYSDGKTYLNWYLQRPGQSPQLLIYWMSTRASGVSDRFSGSGSGTDFTLKISGVEAEDVGIYYCQQGLEFPTFGGGTKLELK
notes: Rat anti-mouse PD-1 mAb, IgG2a, κ; also called intact αPD-1; αPD-1 IgG
For B2, the Kd (as a rule, the constant that tells how readily two partners part at equilibrium) in experiment [1] turned out to be 3.4 nM.

B3: ABD-PE (other)
chain: HHHHHHGGGGSLAEAKVLANRELDKYGVSDFYKRLINKAKTVEGVEALKLHILAALPGGGGSGGGGSGGGGSRHRQPRGWEQLPTGAEFLGDGGDVSFSTRGTQNWTVERLLQAHRQLEERGYVFVGYHGTFLEAAQSIVFGGVRARSQDLDAIWRGFYIAGDPALAYGYAQDQEPDARGRIRNGALLRVYVPRSSLPGFYRTSLTLAAPEAAGEVERLIGHPLPLRLDAITGPEEEGGRLETILGWPLAERTVVIPSAIPTDPRNVGGDLDPSSIPDKEQAISALPDYASQPGKPPREDLK
modifications: Alexa Fluor 647 NHS ester label in the flow cytometry assays (sites not given)
notes: Untargeted control protein without the αPD-1 scFv; also called labeled ABD-PE
B3: in experiment [2], the binding result is “no binding (tested: 100 nM)”.

B4: αPD-1-ABD-PE (other)
chain: HHHHHHGGGGSEVQLQESGPGLVKPSQSLSLTCSVTGYSITSSYRWNWIRKFPGNCLEWMGYINSAGISNYNPSLKRRISITRDTSKNQFFLQVNSVTTEDAATYYCARSDNMGTTPFTYWGQGTLVTVSSGGGGSGGGGSGGGGSDIVMTQGTLPNPVPSGESVSITCRSSKSLLYSDGKTYLNWYLQRPGQSPQLLIYWMSTRASGVSDRFSGSGSGTDFTLKISGVEAEDVGIYYCQQGLEFPTFGCGTKLELKGGGGSGGGGSGGGGSLAEAKVLANRELDKYGVSDFYKRLINKAKTVEGVEALKLHILAALPGGGGSGGGGSGGGGSRHRQPRGWEQLPTGAEFLGDGGDVSFSTRGTQNWTVERLLQAHRQLEERGYVFVGYHGTFLEAAQSIVFGGVRARSQDLDAIWRGFYIAGDPALAYGYAQDQEPDARGRIRNGALLRVYVPRSSLPGFYRTSLTLAAPEAAGEVERLIGHPLPLRLDAITGPEEEGGRLETILGWPLAERTVVIPSAIPTDPRNVGGDLDPSSIPDKEQAISALPDYASQPGKPPREDLK
modifications: Alexa Fluor 647 NHS ester label in the flow cytometry assays (sites not given)
notes: Order NH2-HisTag-GGGGS-VH-(GGGGS)3-VL-(GGGGS)3-ABD-(GGGGS)3-PE; made in E. coli Shuffle T7; theoretical molecular weight 57.9 kDa; also called the immunotoxin; the toxin
For B4, the “fold MFI, PD-1^+ over PD-1^- primary B cells” value in [3] is above 5 fold. Besides, in experiment [4], the “fold MFI (binding and uptake), PD-1^+ over PD-1^- primary T cells” value is above 8 fold. Besides, the “fold MFI (binding and uptake), PD-1^+ over PD-1^- primary B cells” value in experiment [5] is above 7 fold. The molecule further showed a dissociation constant Kd in experiment [1] of 12 nM. The “fold MFI (binding and uptake), EL4 over B16 cells” value in experiment [6] is around 12 fold. The “fold decrease of MFI with PD-L1-Fc against αPD-1-ABD-PE alone” value in [7] is around 8 fold. Further, in [8], the “fold decrease of MFI with PD-L1-Fc against αPD-1-ABD-PE alone” value is around 25 fold. Further, the “fold binding and uptake, EL4 over B16 cells” value in experiment [9] amounted to 11.7 fold. Moreover, in [10], the “fold MFI, EL4 over B16 cells” value is above 3 fold. In [11], the “IC50 of cytotoxicity to EL4 cells (FIG. 2C)” value is 1.1 nM; the “IC50 of cytotoxicity to PD-1^+ primary B cells (72 h, live cell count by flow cytometry)” value stood at 0.47 nM; the “IC50 of cytotoxicity to PD-1^+ primary T cells (72 h, live cell count by flow cytometry)” value came to 0.43 nM; the “IC50 of cytotoxicity to wildtype EL4 cells (MTS assay, 72 h)” value worked out at 0.64 nM. In experiment [11], the “fold toxicity, wildtype EL4 cells against PD-1 knockout EL4 cells” value was above 1000 fold. Also, the “fold MFI, PD-1^+ over PD-1^- primary T cells” value in experiment [12] is above 4 fold.
